B1: I-1821 (peptide)
peptide: Ac-[αAllylPro]D[tBuAla][B5(19)]DDAAFN[PyrS1][3Thi][Bta]Q-NH2
modifications: staple 1-4, 4-11; also: staple olefins reduced to CH2-CH2
B2: I-1828 (peptide)
peptide: Ac-[αAllylPro]D[tBuAla][B5(4)]DDAAFL[Az][3Thi][Bta]Q-NH2
modifications: staple 1-4, 4-11
B3: I-1387 (peptide)
peptide: Ac-[αAllylPro]NA[B5(21)]DTK(iPr)AFL[PyrS2″]F[2Nal]Q-NH2
modifications: staple 1-4, 4-11
notes: also called Ac-PL3-Asn-Ala-B5-Asp-Thr-iPrLys-Ala-Phe-Leu-PyrS2-Phe-2NapA-Gln-NH2
B4: I-1382 (peptide)
peptide: Ac-[αAllylPro]NA[B5(4)]DT[Lys(iPr)]AFL[PyrS2″]F[Bta]Q-NH2
modifications: staple 1-4, 4-11
notes: also called Ac-PL3-Asn-Ala-B5-Asp-Thr-iPrLys-Ala-Phe-Leu-PyrS2-Phe-BztA-Gln-NH2
B5: I-1385 (peptide)
peptide: Ac-[αAllylPro]NA[B5(21)]DQK(iPr)AFL[PyrS2″]F[Bta]Q-NH2
modifications: staple 1-4, 4-11
notes: also called Ac-PL3-Asn-Ala-B5-Asp-Gln-iPrLys-Ala-Phe-Leu-PyrS2-Phe-BztA-Gln-NH2
B6: I-1384 (peptide)
peptide: Ac-[αAllylPro]NA[B5(4)]DT[Lys(iPr)]AFL[PyrS2″]F[Bta]T-NH2
modifications: staple 1-4, 4-11
notes: also called Ac-PL3-Asn-Ala-B5-Asp-Thr-iPrLys-Ala-Phe-Leu-PyrS2-Phe-BztA-Thr-NH2
B7: I-1386 (peptide)
peptide: Ac-[αAllylPro]NA[B5(21)]DKK(iPr)AFL[PyrS2″]F[Bta]Q-NH2
modifications: staple 1-4, 4-11
notes: also called Ac-PL3-Asn-Ala-B5-Asp-Lys-iPrLys-Ala-Phe-Leu-PyrS2-Phe-BztA-Gln-NH2
B8: I-1383 (peptide)
peptide: Ac-[αAllylPro]NA[B5(4)]DT[Lys(iPr)]AFL[PyrS2″]F[Bta]K-NH2
modifications: staple 1-4, 4-11
notes: also called Ac-PL3-Asn-Ala-B5-Asp-Thr-iPrLys-Ala-Phe-Leu-PyrS2-Phe-BztA-Lys-NH2
B9: I-1381 (peptide)
peptide: Ac-[αAllylPro]DA[B5(4)]NT[Lys(iPr)]AFL[PyrS2″]F[2Nal]Q-NH2
modifications: staple 1-4, 4-11
notes: also called Ac-PL3-Asp-Ala-B5-Asn-Thr-iPrLys-Ala-Phe-Leu-PyrS2-Phe-2NapA-Gln-NH2
B10: I-1376 (peptide)
peptide: Ac-[αAllylPro]DA[B5(4)]NT[Lys(iPr)]AFL[PyrS2″]F[Bta]Q-NH2
modifications: staple 1-4, 4-11
notes: also called Ac-PL3-Asp-Ala-B5-Asn-Thr-iPrLys-Ala-Phe-Leu-PyrS2-Phe-BztA-Gln-NH2
B11: I-1380 (peptide)
peptide: Ac-[αAllylPro]DA[B5(4)]NK[Lys(iPr)]AFL[PyrS2″]F[Bta]Q-NH2
modifications: staple 1-4, 4-11
notes: also called Ac-PL3-Asp-Ala-B5-Asn-Lys-iPrLys-Ala-Phe-Leu-PyrS2-Phe-BztA-Gln-NH2
B12: I-1379 (peptide)
peptide: Ac-[αAllylPro]DA[B5(4)]NQ[Lys(iPr)]AFL[PyrS2″]F[Bta]Q-NH2
modifications: staple 1-4, 4-11
notes: also called Ac-PL3-Asp-Ala-B5-Asn-Gln-iPrLys-Ala-Phe-Leu-PyrS2-Phe-BztA-Gln-NH2
B13: I-1378 (peptide)
peptide: Ac-[αAllylPro]DA[B5(4)]NT[Lys(iPr)]AFL[PyrS2″]F[Bta]T-NH2
modifications: staple 1-4, 4-11
notes: also called Ac-PL3-Asp-Ala-B5-Asn-Thr-iPrLys-Ala-Phe-Leu-PyrS2-Phe-BztA-Thr-NH2
B14: I-1377 (peptide)
peptide: Ac-[αAllylPro]DA[B5(4)]NT[Lys(iPr)]AFL[PyrS2″]F[Bta]K-NH2
modifications: staple 1-4, 4-11
notes: also called Ac-PL3-Asp-Ala-B5-Asn-Thr-iPrLys-Ala-Phe-Leu-PyrS2-Phe-BztA-Lys-NH2

Starred links: 1 amine or outer side, 2 acyl side, 3 side chain; linkers in the order of their positions; H or OH if unused. Positions of bridges follow the written chain, without caps; N, C: chain ends. Non-standard residues stand in square brackets, D forms with d. Primed or numbered codes have the meaning given here. *: point of attachment. PyrS2″ = (S)-3-amino-1-((pent-4-en-1-yloxy)carbonyl)pyrrolidine-3-carboxylic acid (stapling residue), C=CCCCOC(=O)N1CC[C@@](N[*:1])(C(=O)[*:2])C1; B5(4) = 2,2-bis(4-pentenyl)glycine = 2-amino-2-(pent-4-en-1-yl)hept-6-enoic acid (stitching residue), C=CCCCC(CCCC=C)(N[*:1])C(=O)[*:2]; B5(21) = 2-amino-2-(pent-4-en-1-yl)hept-6-enoic acid, bis(4-pentenyl)glycine (stitching residue), C=CCCCC(CCCC=C)(N[*:1])C(=O)[*:2]; PyrS1 = (S)-3-amino-1-((but-3-en-1-yloxy)carbonyl)pyrrolidine-3-carboxylic acid, C=CCCOC(=O)N1CC[C@@](N[*:1])(C(=O)[*:2])C1; Az = 1-((allyloxy)carbonyl)-3-aminoazetidine-3-carboxylic acid (stapling residue), C=CCOC(=O)N1CC(N[*:1])(C(=O)[*:2])C1; B5(19) = 2-amino-2-(pent-4-en-1-yl)hept-6-enoic acid (bis(4-pentenyl)glycine), C=CCCCC(CCCC=C)(N[*:1])C(=O)[*:2]; 2Nal = N[C@@H](Cc1ccc2ccccc2c1)C(=O)O; Bta = N[C@@H](Cc1csc2ccccc12)C(=O)O; Lys(iPr) = CC(C)NCCCC[C@H](N)C(=O)O; αAllylPro = C=CC[C@@]1(C(=O)O)CCCN1; tBuAla = CC(C)(C)C[C@H](N)C(=O)O; 3Thi = N[C@@H](Cc1ccsc1)C(=O)O; iPr = CC(C)*

For one experiment, the target named is T1, B-cat-Halo (beta-catenin HaloTag construct expressed in HEK293 cells) (UniProt P35222 1-781).
T1 sequence (looked up): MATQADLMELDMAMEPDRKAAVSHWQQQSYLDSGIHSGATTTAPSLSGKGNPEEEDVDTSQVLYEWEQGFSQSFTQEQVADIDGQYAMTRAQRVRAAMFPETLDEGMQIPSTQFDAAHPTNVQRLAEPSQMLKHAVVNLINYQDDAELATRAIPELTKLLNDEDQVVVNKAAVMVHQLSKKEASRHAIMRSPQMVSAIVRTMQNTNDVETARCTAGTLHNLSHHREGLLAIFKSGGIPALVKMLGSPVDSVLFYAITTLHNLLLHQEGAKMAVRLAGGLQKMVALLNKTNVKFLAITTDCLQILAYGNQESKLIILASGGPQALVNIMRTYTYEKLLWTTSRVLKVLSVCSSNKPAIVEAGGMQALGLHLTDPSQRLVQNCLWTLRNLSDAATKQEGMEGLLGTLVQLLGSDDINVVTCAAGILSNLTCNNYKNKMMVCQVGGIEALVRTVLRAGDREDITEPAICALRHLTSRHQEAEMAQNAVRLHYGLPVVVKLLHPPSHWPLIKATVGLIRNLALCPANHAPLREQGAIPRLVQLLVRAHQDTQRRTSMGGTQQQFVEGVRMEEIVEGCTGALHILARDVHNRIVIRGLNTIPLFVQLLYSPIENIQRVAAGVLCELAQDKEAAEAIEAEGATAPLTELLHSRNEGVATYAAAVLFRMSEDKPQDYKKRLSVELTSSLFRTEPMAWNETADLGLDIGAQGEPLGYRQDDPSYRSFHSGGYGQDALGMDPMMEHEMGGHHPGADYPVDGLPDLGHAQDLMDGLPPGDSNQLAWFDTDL
As to the kind of experiment: cell-based or functional assay.
Consider B1, for which the “NanoBRET Abs IC50” value was more than 20 µM.

With B2, the “NanoBRET Abs IC50” value was more than 20 µM.

The target in another experiment is T2, full-length beta-Catenin (Uniprot ID P35222) (Homo sapiens (Human), UniProt P35222 2-781).
T2 construct: full-length beta-Catenin (Uniprot ID P35222); also called bCat; B-Catenin
T2 sequence: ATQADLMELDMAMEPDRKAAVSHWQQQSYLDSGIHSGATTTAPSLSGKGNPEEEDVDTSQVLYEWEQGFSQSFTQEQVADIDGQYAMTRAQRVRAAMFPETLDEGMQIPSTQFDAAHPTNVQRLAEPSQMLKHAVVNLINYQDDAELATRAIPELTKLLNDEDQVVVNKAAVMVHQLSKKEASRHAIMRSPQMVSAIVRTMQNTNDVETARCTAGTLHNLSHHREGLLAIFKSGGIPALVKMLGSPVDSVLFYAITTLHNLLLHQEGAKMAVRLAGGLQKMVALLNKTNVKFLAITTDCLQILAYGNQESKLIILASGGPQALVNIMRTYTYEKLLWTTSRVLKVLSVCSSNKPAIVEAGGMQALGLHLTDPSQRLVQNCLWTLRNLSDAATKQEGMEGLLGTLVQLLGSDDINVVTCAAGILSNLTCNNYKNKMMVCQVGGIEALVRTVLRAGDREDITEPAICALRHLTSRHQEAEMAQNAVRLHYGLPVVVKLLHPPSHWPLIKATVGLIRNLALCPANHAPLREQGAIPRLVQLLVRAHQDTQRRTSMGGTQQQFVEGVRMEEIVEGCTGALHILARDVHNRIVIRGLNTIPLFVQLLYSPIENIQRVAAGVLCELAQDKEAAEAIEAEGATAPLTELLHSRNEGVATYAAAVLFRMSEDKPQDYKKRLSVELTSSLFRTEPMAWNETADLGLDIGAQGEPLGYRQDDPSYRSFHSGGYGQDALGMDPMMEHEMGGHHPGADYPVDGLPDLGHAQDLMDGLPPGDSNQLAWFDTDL
Briefly: fluorescence polarization competition; full-length beta-catenin + 5FAM-TCF4 10-53 probe, peptide titrated. The protocol: The plate was incubated protected from light for 60 minutes at 20° C. prior to read. Reads were performed on a CLARIOstar plate reader (BMG Labtech) in duplicate, and data were fitted to a 1:1 binding model with hill slope using an in-house script. All provided concentrations are final concentrations.
In the case of B3, the IC50 stood at 6.94 µM.

On to B4, for which the IC50 came to 2.85 µM.

Take B5: the IC50 is 1.08 µM.

Consider B6, for which the IC50 was found to be 10 µM.

As to B7, the IC50 stood at 2.25 µM.

On to B8, for which the IC50 stood at 1.66 µM.

Regarding B9, the IC50 was 10 µM.

Turning to B10, the IC50 was 4.21 µM.

For the molecule B11, the IC50 worked out at 10 µM.

In the case of B12, the IC50 was 1.44 µM.

On to B13, for which the IC50 was 6.17 µM.

On to B14, for which the IC50 is 1 µM.
